From article PMC3765907, “S-Nitrosylation of parkin as a novel regulator of p53-mediated neuronal cell death in sporadic Parkinson’s disease” come the findings set out here.

The data set addresses parkin (wild-type, GST-tagged) (UniProt O60260 1-465). The data set is described as follows: EMSA; parkin 100 nM to 1 uM, 0.1 nM probe; shift increases with parkin; 1x binding buffer (Panomics), room temperature, 20 min; 0.1 nM biotin probe, 1 uM parkin (100 nM-1 uM titration); 6% PAGE in 0.5x TBE pH 8.3; salt not stated. The following applies: protein: recombinant; tags: GST; label: 5' biotin; blunt.

parkin (wild-type, GST-tagged), sequence (O60260 whole entry): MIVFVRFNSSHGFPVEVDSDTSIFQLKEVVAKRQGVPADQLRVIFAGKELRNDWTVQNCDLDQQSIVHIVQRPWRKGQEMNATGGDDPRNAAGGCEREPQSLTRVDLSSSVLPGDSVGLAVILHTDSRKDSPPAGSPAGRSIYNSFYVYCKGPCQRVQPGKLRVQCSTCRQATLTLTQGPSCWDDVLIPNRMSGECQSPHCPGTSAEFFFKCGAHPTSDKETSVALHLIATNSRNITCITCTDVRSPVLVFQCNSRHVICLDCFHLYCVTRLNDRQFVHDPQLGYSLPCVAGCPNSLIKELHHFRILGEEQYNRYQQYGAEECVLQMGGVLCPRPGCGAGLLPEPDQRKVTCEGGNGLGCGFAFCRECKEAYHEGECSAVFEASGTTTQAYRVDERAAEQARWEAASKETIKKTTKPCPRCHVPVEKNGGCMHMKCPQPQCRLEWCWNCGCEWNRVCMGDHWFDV

B1: Pp53 (human p53 promoter probe) (dsDNA)
DNA 1: GGCACCAGGTCGGCGAGAATCCTGACTCTGCACCCTCCTCCCCAACTCCATTTCCTTTGCTTCCTCCGGC
DNA 2: GCCGGAGGAAGCAAAGGAAATGGAGTTGGGGAGGAGGGTGCAGAGTCAGGATTCTCGCCGACCTGGTGCC
With B1, the binding result is on record as “binds”.
